117 variants from publication PMC10244618 can be followed below.

“And” between values parts separate entries of the source, which are not always exact repeats. Equal values may be shown once.

Sequences and labels used below:
B1: NF2 (merlin) isoform 7, human, full length (507 aa, lacks exons 2-3 = isoform-1 residues 39-121; exon-16 C-terminus), P35240-4 (parent)
chain: MAGAIASRMSFSSLKRKQPKTFTVRIVTMDAEMEFNCEVKKQILDEKIYCPPEASVLLASYAVQAKYGDYDPSVHKRGFLAQEELLPKRVINLYQMTPEMWEERITAWYAEHRGRARDEAEMEYLKIAQDLEMYGVNYFAIRNKKGTELLLGVDALGLHIYDPENRLTPKISFPWNEIRNISYSDKEFTIKPLDKKIDVFKFNSSKLRVNKLILQLCIGNHDLFMRRRKADSLEVQQMKAQAREEKARKQMERQRLAREKQMREEAERTRDELERRLLQMKEEATMANEALMRSEETADLLAEKAQITEEEAKLLAQKAAEAEQEMQRIKATAIRTEEEKRLMEQKVLEAEVLALKMAEESERRAKEADQLKQDLQEAREAERRAKQKLLEIATKPTYPPMNPIPAPLPPDIPSFNLIGDSLSFDFKDTDMKRLSMEIEKEKVEYMEKSKHLQEQLNELKTEIEALKLKERETALDILHNENSDRGGSSKHNTIKKPQAQGRRPICI

Variants of B1 are the subject of one test. The test is described as follows: reverse yeast two-hybrid deep mutational scan (rY2H-seq): NF2 isoform 7 mutant library as bait mated with wild-type prey strains; selection on medium lacking adenine for non-interacting pairs; NextSeq paired-end sequencing; enrichment vs …. To be noted: with PIK3R3 (phosphatidylinositol 3-kinase regulatory subunit gamma), Q92569; yeast diploids after mating (RBait_S3 x RPrey_S3), 30 °C, selection for reporter genes on NB agar; human tyrosine kinase ABL2 co-expressed as the active kinase …; HIGHER = WEAKER BINDING (the opposite of display enrichments): higher = stronger loss of interaction: reverse Y2H selects yeast in which bait and prey do NOT interact (growth without adenine), so a …; hits-only table; scale: rY2H score; numbering: uniprot, sequence starts at 1. Background: A reporter such as luciferase makes a cellular process visible.
Consider G146R, for which the enrichment came to 1.52. As to A312K, the enrichment came out at 2. P52A: the enrichment was 1.76. In the case of V352K, the enrichment stood at 2.67. I171L: the enrichment stood at 1.51. Still for that read-out and setting: next, D484E: 2.39; F173P: 13. The same measure, in the same setting: next, F173T: 11; D71T: 11.1; I329A: 1.64. Same read-out and setting: next, M280I: 2.64. Turning to L149P, the enrichment is 2.48. Same read-out and setting: in the case of A368L it was 2.18. On the same count and under the same terms, in the case of M225I it was 2.15; in that of G501C, 1.45. The same measure, in the same setting: in the case of L14P it was 3.46; in that of F415E, 1.83. For the variant S55K, the enrichment came out at 35.5.

M133I: the enrichment worked out at 2.1.

Consider A62K, for which the enrichment was found to be 2.93. As to R166C, the enrichment stood at 1.57. Take R166K: the enrichment worked out at 2.44. Same read-out and setting: next, I141C: 1.42; M357E: 2.86. For the variant E339G, the enrichment was found to be 2.91. Regarding L212P, the enrichment amounted to 2.57. Consider G486S, for which the enrichment came to 2.29. As to T493A, the enrichment was found to be 2.62. For K346N, the enrichment is 2.36. On the same count and under the same terms, in the case of L348A it was 2.29; in that of N176M, 1.43.

The same test, now with this note: with NF2 C-terminal domain (wild type; homomeric NF2-NF2 interaction), P35240; yeast diploids after mating (RBait_S3 x RPrey_S3), 30 °C, selection for reporter genes on NB agar; human ABL2 co-expressed as the kinase-dead K35M mutant …; HIGHER = WEAKER BINDING (the opposite of display enrichments): higher = stronger loss of interaction: reverse Y2H selects yeast in which bait and prey do NOT interact (growth without adenine), so a …; hits-only table; partner unresolved; scale: rY2H score; numbering: uniprot, sequence starts at 1.
Take L156K: the enrichment is 2.02.

Regarding H159A, the enrichment amounted to 2.04. On the same count and under the same terms, next, A378L: 2.15. As for A312K, the enrichment is 2.34. On to Q373K, for which the enrichment worked out at 1.92.

With L158G, the enrichment was 1.55.

On to I160A, for which the enrichment came out at 1.61. On the same count and under the same terms, in the case of I160K it was 1.71 and 3.21.

For A358K, the enrichment came to 3.8. In the case of A358E, the enrichment turned out to be 2.37.

Consider S489K, for which the enrichment worked out at 2.15. On to S421K, for which the enrichment came to 2.24. On the same count and under the same terms, in the case of P413K it was 1.53; in that of L301A, 1.81. Turning to Y61K, the enrichment came out at 1.84. As to Y61A, the enrichment stood at 6.2.

On to Q64M, for which the enrichment was 5.81. The same measure, in the same setting: in the case of P163E it was 2.31; in that of F415E, 2.37; in that of M133E, 2.45. Turning to F424E, the enrichment came out at 27.7. Take A499G: the enrichment came to 1.7. On the same count and under the same terms, in the case of Q261E it was 1.7. As for D411L, the enrichment was 3.15. On to M357A, for which the enrichment is 1.97 and 1.82. The same measure, in the same setting: in the case of N288A it was 1.84. Regarding R113G, the enrichment came out at 1.5. As for N482A, the enrichment is 3.43. The same measure, in the same setting: in the case of N482T it was 2.43. The same measure, in the same setting: in the case of N482E it was 1.99; in that of P399S, 3.98. With N457E, the enrichment came out at 2.32. Turning to L390A, the enrichment stood at 2.28. K260A: the enrichment was determined as 2.49. L434R: the enrichment worked out at 1.58. On the same count and under the same terms, in the case of S483K it was 2.55. For K496S, the enrichment was 1.44. Still for that read-out and setting: in the case of D476G it was 1.92; in that of E377L, 1.63; in that of M238A, 4.02. Regarding L348A, the enrichment stood at 4.71. Regarding L417T, the enrichment turned out to be 2.32.

As to L466C, the enrichment is 1.55. Still for that read-out and setting: in the case of I105C it was 1.42 and 1.58.

The same test, now with this note: with KDM1A (lysine-specific histone demethylase 1A; the table's label AOF2 is a gene synonym of KDM1A), O60341; yeast diploids after mating (RBait_S3 x RPrey_S3), 30 °C, selection for reporter genes on NB agar; human tyrosine kinase ABL2 co-expressed as the active kinase …; HIGHER = WEAKER BINDING (the opposite of display enrichments): higher = stronger loss of interaction: reverse Y2H selects yeast in which bait and prey do NOT interact (growth without adenine), so a …; hits-only table; scale: rY2H score; numbering: uniprot, sequence starts at 1.
For the variant H159A, the enrichment is 1.39.

On to L57A, for which the enrichment was 3.5. Same read-out and setting: next, P504R: 1.85.

In the case of T397I, the enrichment turned out to be 4.78.

Turning to E391R, the enrichment turned out to be 2.32. As for D428N, the enrichment was found to be 1.87.

As for I160K, the enrichment is 3.84 and 4.07.

For D130A, the enrichment is 1.54.

As for S489L, the enrichment came out at 2.43. Turning to S421K, the enrichment is 2.61. Consider L301A, for which the enrichment was 2. As for I329A, the enrichment was found to be 1.81. For L355P, the enrichment stood at 1.79.

Consider Q64K, for which the enrichment worked out at 2.38. Still for that read-out and setting: in the case of Q64P it was 6.87. Regarding M225K, the enrichment worked out at 43. E121A: the enrichment amounted to 1.59.

On to Q500K, for which the enrichment is 1.42.

As for I404D, the enrichment was 7.96. Consider I418A, for which the enrichment was found to be 1.5.

For the variant P163E, the enrichment came to 4.05. With D162Y, the enrichment stood at 2.15. Consider M96V, for which the enrichment was found to be 1.61. M96I: the enrichment came to 1.63. Consider E311K, for which the enrichment was 1.67 and 1.4.

On to S55F, for which the enrichment amounted to 3.58. The same measure, in the same setting: next, A333E: 2.04. The same measure, in the same setting: next, E444K: 1.5; M133E: 21.9.

For the variant D411A, the enrichment was 2.4 and 1.53.

Regarding E349P, the enrichment was found to be 2.41. Same read-out and setting: in the case of M446I it was 1.99; in that of R341A, 8.79. For P407A, the enrichment turned out to be 2.33. Still for that read-out and setting: in the case of P407L it was 1.77 and 2.01; in that of H221Y, 2.24. On to E38K, for which the enrichment is 1.85. Still for that read-out and setting: next, Q306H: 1.79; K356E: 1.91. With K356A, the enrichment is 2. Same read-out and setting: next, L390E: 2; F200S: 3.89. Still for that read-out and setting: in the case of L434R it was 1.37.

With M286A, the enrichment turned out to be 1.89. The same measure, in the same setting: in the case of K304P it was 1.4. Still for that read-out and setting: next, K304A: 3.58. Turning to I105C, the enrichment stood at 1.42.

Still in this test, the particulars now being: with KDM1A (lysine-specific histone demethylase 1A; the table's label AOF2 is a gene synonym of KDM1A), O60341; yeast diploids after mating (RBait_S3 x RPrey_S3), 30 °C, selection for reporter genes on NB agar; human ABL2 co-expressed as the kinase-dead K35M mutant …; HIGHER = WEAKER BINDING (the opposite of display enrichments): higher = stronger loss of interaction: reverse Y2H selects yeast in which bait and prey do NOT interact (growth without adenine), so a …; hits-only table; scale: rY2H score; numbering: uniprot, sequence starts at 1.
As to P504R, the enrichment came to 2. On to C506S, for which the enrichment came out at 1.49.

As to G501C, the enrichment was found to be 1.59.

For the variant Q500L, the enrichment amounted to 19.6. Consider N482T, for which the enrichment is 2.3.

Turning to N482L, the enrichment was found to be 2.71. On the same count and under the same terms, in the case of N457T it was 2.31. On to N457S, for which the enrichment was 3.38.

Regarding L434R, the enrichment is 1.73.

With G486D, the enrichment is 1.52. On to D476E, for which the enrichment came to 2.39.
